According to patent publication US11667697 (VANDERBILT UNIVERSITY, dated 2023):

Experiments:
[1] = biological target: T1, VACV H3 protein (vaccinia virus, UniProt P07240 1-278); assay: lysate ELISA
T1 sequence: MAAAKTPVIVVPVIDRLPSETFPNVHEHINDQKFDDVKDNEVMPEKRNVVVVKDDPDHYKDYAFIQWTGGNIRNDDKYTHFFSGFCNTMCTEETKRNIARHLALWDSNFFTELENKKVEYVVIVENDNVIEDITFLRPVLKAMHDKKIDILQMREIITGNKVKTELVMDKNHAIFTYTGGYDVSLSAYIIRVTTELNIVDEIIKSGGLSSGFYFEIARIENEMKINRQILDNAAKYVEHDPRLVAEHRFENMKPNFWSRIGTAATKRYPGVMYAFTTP

[2] = biological target: T1, VACV H3 protein; assay: purified antigen ELISA
[3] = biological target: T1, VACV H3 protein; assay: cell-based or functional assay
[4] = biological target: T2, VACV L1 protein (vaccinia virus, UniProt P07612 1-185); assay: lysate ELISA
T2 sequence: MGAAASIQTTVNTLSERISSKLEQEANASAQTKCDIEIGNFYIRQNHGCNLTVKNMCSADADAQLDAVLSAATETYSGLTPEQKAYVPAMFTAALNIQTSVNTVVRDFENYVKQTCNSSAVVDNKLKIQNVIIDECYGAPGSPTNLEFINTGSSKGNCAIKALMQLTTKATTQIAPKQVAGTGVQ

[5] = biological target: T2, VACV L1 protein; assay: purified antigen ELISA
[6] = biological target: T2, VACV L1 protein; assay: cell-based or functional assay
[7] = biological target: T3, VACV D8 protein (vaccinia virus, UniProt P04195 1-261); assay: antigen ELISA/array/BLI
T3 sequence: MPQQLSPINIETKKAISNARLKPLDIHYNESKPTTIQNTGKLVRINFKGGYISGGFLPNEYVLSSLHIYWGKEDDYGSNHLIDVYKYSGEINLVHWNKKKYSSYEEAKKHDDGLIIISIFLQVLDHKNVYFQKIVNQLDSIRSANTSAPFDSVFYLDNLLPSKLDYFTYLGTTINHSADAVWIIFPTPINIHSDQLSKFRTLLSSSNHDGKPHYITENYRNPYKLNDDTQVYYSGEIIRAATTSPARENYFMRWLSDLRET

[8] = biological target: T4, VACV B5 protein (vaccinia virus, UniProt Q01227 20-275); assay: lysate ELISA
[9] = biological target: CPXV ortholog of B5 (cowpox virus); assay: lysate ELISA
[10] = biological target: MPXV ortholog of B5 (monkeypox virus); assay: lysate ELISA
[11] = biological target: T4, VACV B5 protein; assay: purified antigen ELISA
[12] = biological target: VARV ortholog of B5 (variola virus); assay: purified antigen ELISA
[13] = biological target: T4, VACV B5 protein; assay: cell-based or functional assay
[14] = biological target: CPXV ortholog of B5 (cowpox virus); assay: cell-based or functional assay

B1: MPXV-79 (antibody, V domains shown)
VH: QVQLVQSGAEVKKPGASVKVSCKASGYSFRSNGISWVRQAPGQGFEWLGWIAAYNGDTKYVQKFQGRLTMTTDTSTDTAYMELWSLRSDDTAVYYCARDPKLGRKGSAFDIWGQGTLVIVSS
VL: EIVLTQSPATLSLSPGGRATLSCRASQSVGNYLTWYQQKPGQAPRLLIFDGSTRATGIPARFSGSGSGTDFTLTISSLEPEDFAVYYCLQRSDLYTFGQGTKVDIK
notes: human IgG1, anti-H3
B1 was tested, and the EC50 [1] was 0.004 mg/L, the EC50 [2] was 0.06 mg/L and the “PRNT Emax, VACV MV+C'” value [3] was 62%. For the same binder, the “PRNT IC50, VACV MV+C'” value [3] was 4.7 mg/L.

B2: VACV-315 (antibody, V domains shown)
VH: EVQLLESGGGLVQPGGSLKLSCAASGFIFSNYAMGWVRQAPGKGLEWVSALSASDGVTSYADSVKGRFTISRDNSKNTMYLQMNRLRTEDTAIYFCAKGRARVNNIYRYFDHWGQGTLVTVSS
VL: QSVLTQPASVSGSPGQSITISCTGTSSDVGAYTFVSWYQHHPGKAPKLIIYEVSNRPSGVSDRFSGSKSGNTASLTISGLQAEDEADYYCNSYTTTSPWVFGGGTQLTVL
notes: human IgG1, anti-H3
B2 was tested, and the EC50 [1] was 0.002 mg/L, the EC50 [2] was 0.2 mg/L and the “PRNT Emax, VACV MV+C'” value [3] was 72%. The “PRNT IC50, VACV MV+C'” value [3] was 2.2 mg/L.

B3: MPXV-87 (antibody, V domains shown)
V domain 1: QVQLVQSGAEVKKPGASVKVSCKASGYTFTSHGIIWVRQAPGQGLEWMGWISVYNDNTNSAQKFQDRVTMTTATSTSTAYMELRSLRSDDTAVYYCARSSSGPRYYYYGMDVWGQGTTSP
V domain 2: QSVVTQPPSVSGAPGQRVTISCTGSSSNIGAGYAVHWYYQLPGIAPKLLIFGNNNRPSGVPDRFSGSKSGTSASLAITGLQAEDEADYYCQSYDSSLSGWVFGGGTQVTVL
notes: human IgG1, anti-L1
With B3 the EC50 [4] was 0.01 mg/L, the EC50 [5] was 0.3 mg/L and the “PRNT Emax, VACV MV” value [6] was 61%. The “PRNT Emax, VACV MV+C'” value [6] was 72%, the “PRNT IC50, VACV MV” value [6] was 5 mg/L and the “PRNT IC50, VACV MV+C'” value [6] was 0.8 mg/L.

B4: VACV-314 (antibody, V domains shown)
VH: QVQLVQSGPGLVKPSETLSLTCTVSGGSISSYYWSWIRQPPGKGLEYIGHIYYSGGTKYNPSLRSRVTISVDTSKNQFSLKLTSVTAADTAVYYCARLAGRKPDADSWGQGTLVTVSS
VL: QPVLTQEPSLTVSPGGTVTLTCASSTGAVTSGFFPNWLQQKPGQAPRALIYSTNNKHSWTPARFSGSLLGGKAALTLSGVQPEDEAEYYCLLYYGGVVVFGGGTKLTVL
notes: human IgG3, anti-H3
With B4 the EC50 [1] was 0.003 mg/L, the EC50 [2] was 0.1 mg/L and the “PRNT Emax, VACV MV+C'” value [3] was 74%. For the same binder, the “PRNT IC50, VACV MV+C'” value [3] was 0.1 mg/L.

B5: VACV-77 (antibody, V domains shown)
VH: QVQLQESGPGLVKPSETLSLTCTVSGGSMSSYFWSWIRQPPGKGLEWIGYISYSGGTNYNPSLKSRVTISVDTSKNQFSLKLTSVTAADTAVYYCAREDRGSPDYWGQGTLVTVSS
VL: QSVLTQPPSVSAAPGRKVTISCSGSSSNIGNNYVSWYQQLPGTAPKLLIYDNYKRPSGIPDRFSGSKSGTSATLGITGLQTGDEADYYCGTWDLSLSAGVFGGGTKLTVL
B5: binds [7].

B6: MPXV-92 (antibody)
chain 1: QVQLVESGPGLVKPSGTLSLTCAVSGGSISSSNWWSWVRQPPGKGLEWIGEIYHSGSTNYTPSLKSRVTISLDKSKNQFSLKLSSVTAADTAMYYCARNFYPGYLQYWGQGTLVTVSS
chain 2: QSALTQPASVSGSPGQSITISCTGTISDVGGYNYVSWYQQHPGKAPKLMIYDVNKRPSGVSNRFSGSKSGNT
For B6, the EC50 [8] was 0.064 mg/L, the EC50 [9] was 0.014 mg/L and the EC50 [10] was 0.046 mg/L. For the same binder, the EC50 [11] was 0.7 mg/L, the EC50 [12] was 1.2 mg/L and the “PRNT Emax, VACV EV+C'” value [13] was 86%. For the same binder, the “PRNT IC50, VACV EV+C'” value [13] was 0.08 mg/L and the “PRNT IC50, CPXV EV+C'” value [14] was 0.5 mg/L.
